# In IntAct's records for PubMed 19966800:
# Target: caga_helpy cagA (UniProt P55980)
# Sequence (P55980 whole entry): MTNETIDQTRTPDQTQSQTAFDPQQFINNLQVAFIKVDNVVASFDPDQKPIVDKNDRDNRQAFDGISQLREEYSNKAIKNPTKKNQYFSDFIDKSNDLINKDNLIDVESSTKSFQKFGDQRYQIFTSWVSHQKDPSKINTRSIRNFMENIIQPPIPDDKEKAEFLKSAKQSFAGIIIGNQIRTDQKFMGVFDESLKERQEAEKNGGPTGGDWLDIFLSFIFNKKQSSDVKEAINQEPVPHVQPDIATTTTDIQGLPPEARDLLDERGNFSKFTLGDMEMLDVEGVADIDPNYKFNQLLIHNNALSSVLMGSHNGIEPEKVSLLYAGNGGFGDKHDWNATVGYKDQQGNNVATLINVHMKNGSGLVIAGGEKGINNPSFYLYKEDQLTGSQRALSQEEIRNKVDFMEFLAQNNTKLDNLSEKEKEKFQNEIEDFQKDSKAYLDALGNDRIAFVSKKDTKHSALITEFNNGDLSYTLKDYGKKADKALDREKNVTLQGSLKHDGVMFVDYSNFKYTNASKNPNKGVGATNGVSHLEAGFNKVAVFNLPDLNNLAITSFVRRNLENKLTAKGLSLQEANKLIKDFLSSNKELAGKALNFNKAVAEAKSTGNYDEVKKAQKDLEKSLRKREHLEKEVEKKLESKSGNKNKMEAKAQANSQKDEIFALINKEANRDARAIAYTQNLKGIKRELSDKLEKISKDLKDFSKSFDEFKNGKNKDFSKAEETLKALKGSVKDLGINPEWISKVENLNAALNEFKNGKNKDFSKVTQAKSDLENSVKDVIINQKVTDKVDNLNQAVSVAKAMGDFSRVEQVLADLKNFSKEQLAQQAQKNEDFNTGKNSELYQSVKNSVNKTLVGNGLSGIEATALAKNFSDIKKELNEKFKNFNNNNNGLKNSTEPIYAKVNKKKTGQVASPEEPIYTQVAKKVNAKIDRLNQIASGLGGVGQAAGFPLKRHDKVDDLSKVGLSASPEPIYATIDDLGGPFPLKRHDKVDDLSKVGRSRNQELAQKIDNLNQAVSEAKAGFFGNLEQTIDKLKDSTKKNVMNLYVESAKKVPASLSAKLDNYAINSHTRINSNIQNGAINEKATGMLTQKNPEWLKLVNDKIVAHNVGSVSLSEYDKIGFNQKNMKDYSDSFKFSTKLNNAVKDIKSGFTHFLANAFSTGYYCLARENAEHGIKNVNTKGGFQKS
substance,measurement,value
"Serine/threonine-protein kinase MARK2 (Homo sapiens), Q7KZI7 E136G;F138G;D139G",effect of a mutation on the interaction,disrupting interaction
